What was measured:
Assay in all cases: MST; labelled JIP3/4 fragment (Blue-NHS dye) constant at 20 nM, KIF5B fragment titrated 120 pM to 4 uM (up to 38.2 uM when needed); 50 mM Tris pH 8.0, 200 mM NaCl, 10 mM MgCl2, 0.05% Tween 20; room temperature; Monolith NT.115, premium capillaries, MST-on 0.5-1.5 s; 1:1 Kd fit; three replicates; the paper calls its affinities relative measurements
[1] = biological target: JIP3-N^JIP4-RH1-lz3 chimera (JIP3 variant incorporating the N-terminus of JIP4) (not stated | mouse)
JIP4-N-RH1-lz3-G40H-R41C = JIP4-N-RH1-lz3-G40H-R41C (UniProt O60271)
Chain of JIP4-N-RH1-lz3-G40H-R41C (O60271 whole entry G40H/R41C): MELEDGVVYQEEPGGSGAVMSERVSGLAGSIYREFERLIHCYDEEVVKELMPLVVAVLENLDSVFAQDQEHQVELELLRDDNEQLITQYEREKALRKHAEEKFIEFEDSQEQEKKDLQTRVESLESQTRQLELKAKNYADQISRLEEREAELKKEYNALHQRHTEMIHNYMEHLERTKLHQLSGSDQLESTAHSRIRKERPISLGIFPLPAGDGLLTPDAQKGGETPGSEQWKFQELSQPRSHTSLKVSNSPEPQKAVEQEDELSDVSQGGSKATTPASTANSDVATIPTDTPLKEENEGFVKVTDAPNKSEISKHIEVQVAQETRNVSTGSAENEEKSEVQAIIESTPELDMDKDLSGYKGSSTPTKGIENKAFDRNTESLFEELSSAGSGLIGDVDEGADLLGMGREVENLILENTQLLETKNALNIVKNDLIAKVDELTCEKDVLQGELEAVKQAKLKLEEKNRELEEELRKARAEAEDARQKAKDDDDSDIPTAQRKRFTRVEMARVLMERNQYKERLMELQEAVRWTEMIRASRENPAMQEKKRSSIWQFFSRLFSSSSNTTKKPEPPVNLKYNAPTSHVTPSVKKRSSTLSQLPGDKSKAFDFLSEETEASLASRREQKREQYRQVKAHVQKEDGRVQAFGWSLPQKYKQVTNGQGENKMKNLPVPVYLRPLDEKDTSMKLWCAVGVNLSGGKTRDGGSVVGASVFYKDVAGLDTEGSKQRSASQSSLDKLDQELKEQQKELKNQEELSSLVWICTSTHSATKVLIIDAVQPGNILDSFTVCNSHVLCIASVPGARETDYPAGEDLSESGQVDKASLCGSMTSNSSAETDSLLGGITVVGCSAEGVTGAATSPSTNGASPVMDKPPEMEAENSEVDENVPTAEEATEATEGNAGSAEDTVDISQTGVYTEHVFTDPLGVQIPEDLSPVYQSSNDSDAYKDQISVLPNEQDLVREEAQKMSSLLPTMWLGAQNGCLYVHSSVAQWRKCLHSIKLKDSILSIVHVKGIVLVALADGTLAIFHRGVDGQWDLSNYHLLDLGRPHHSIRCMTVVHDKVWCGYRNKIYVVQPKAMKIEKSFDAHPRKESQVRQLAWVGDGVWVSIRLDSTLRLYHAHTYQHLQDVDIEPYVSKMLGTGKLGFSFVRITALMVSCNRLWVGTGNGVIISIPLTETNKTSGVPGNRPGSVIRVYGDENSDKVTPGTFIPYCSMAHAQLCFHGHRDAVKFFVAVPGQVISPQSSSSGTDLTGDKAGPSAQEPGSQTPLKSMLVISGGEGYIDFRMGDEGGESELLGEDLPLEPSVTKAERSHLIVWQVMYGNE

[2] = biological target: JIP4-N^JIP3-RH1-lz3 chimera (JIP4 variant incorporating the N-terminus of JIP3) (mouse | not stated)

Chain of KIF5B-CC3b-CC4-dt fragment (P33176 771-963): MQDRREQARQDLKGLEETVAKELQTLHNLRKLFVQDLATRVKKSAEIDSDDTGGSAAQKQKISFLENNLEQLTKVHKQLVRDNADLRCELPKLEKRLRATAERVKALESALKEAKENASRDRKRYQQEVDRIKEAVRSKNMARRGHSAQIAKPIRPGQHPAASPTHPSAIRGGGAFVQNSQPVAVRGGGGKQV

Kd [1]: 29.6 nM
Kd (JIP4-N-RH1-lz3-G40H-R41C): 132 nM
Kd [2]: 246 nM
Substance: KIF5B-CC3b-CC4-dt fragment (from UniProt P33176 771-963) (domain or fragment)

Reference: publication PMC13499124
